Sequences and labels used below:
B1: Fab of well E10 (Omniclonal AL0003Z1 plate) (Fab, V domains shown)
VH: EVQLQQSGPELVKPGASVKISCKASGDTFTDYYMNWVKQSHGKSLEWIGDINPNYGGITYNQKFKGKATLTVDTSSSTAYMELRGLTSEDSAVYYCQAYYRNSDYWGQGTTLTVSS
VL: DIVMTQAAPSVPVTPGESVSISCRSSKSLLHSNGNTYLYWFLQRPGQSPQLLIYRMSNLASGVPDRFSGSGSGTAFTLRISRVEAEDVGVYYCMQHLEYPYTFGGGTKLEIK
B2: A9 (Fab, V domains shown)
VH: QVQVQQPGAELVRPGASVTLSCKASGYIFTDYEVHWVRQRPVHGLEWIGVIDPETGDTAYNQKFKGKATLTADKSSSTAYMELSSLTAEDSAVYYCIGYADYWGQGTTLTVSS
VL: DIVMTQSPSSLAMSLGQKVTMSCKSSQSLLNSNNQLNYLAWYQQKPGQSPKLLVYFASTRKSGVPDRFIGSGSGTDFTLTITSVQAEDLADYFCQQHFNTPLTFGAGTKLELK
B3: Fab of well C2 (Omniclonal AL0003Z1 plate) (Fab, V domains shown)
VH: DVQLQESGPDLVKPSQSLSLTCTVTGFSITSGYGWHWIRQFPGNKLEWMGYISFNGDSNYNPSLKSRISITRDTSKNQFFLQLNSVTSEDTATYYCASSYDGLFAYWGQGPLVTVSA
VL: DIQMTQSPSSMYASLGERVTLTCKASQDIHNYLNWFQQKPGKSPKTLIHRANRLVAGVPSRFSGSGSGQDYSLTISSLEYEDLGIYYCLQYDAFPLTFGAGTKLELK
B4: 3C4 mouse anti-KAAG1 Fab (Fab, V domains shown)
VH: B3 VH with D1E, S53N, F54Y, N55D, D57H, S58N, N59D, R72Q, S88T, P111T
VL: DIVMSQSPSSMYASLGERVTITCKASQDIHNFLNWFQQKPGKSPKTLIFRANRLVDGVPSRFSGSGSGQDYSLTISSLEFEDLGIYSCLQYDEIPLTFGAGTKLELR
B5: Fab of well D1 (Omniclonal AL0003Z1 plate) (Fab, V domains shown)
VH: B3 VH with D1E, N44D, S58Y, N84S, S88T, P111T
VL: B3 VL with Q3K, L21I, N31T, K45E, H49Y, A56D, L83M, A93E
B6: 3D3 mouse anti-KAAG1 Fab (Fab, V domains shown)
VH: EVQLQQSVAELVRPGASVTLSCKASGYIFTDYEIHWVKQTPVHGLEWIGVIDPETGNTAFNQKFKGKATLTADISSSTAYMELSSLTSEDSAVYYCMGYSDYWGQGTTLTVSS
VL: DIVMTQSPSSLAVSIGQKVTMNCKSSQSLLNSNFQKNFLAWYQQKPGQSPKLLIYFASTRESSIPDRFIGSGSGTDFTLTISSVQAEDLADYFCQQHYSTPLTFGAGTKLELK
B7: G12 (Fab, V domains shown)
VH: B6 VH with L20V, V42A
VL: DIVMTQSPKFMSTSVGDRVSITCKASQDVGTAVAWYQQKPGQSPELLIYWTSTRHTGVPDRFSGSGSGTDFTLTISSVQAEDLADYFCQQHYSIPLTFGAGTKLELR

Changes are numbered by the printed parent chain.

The target of one assay is T1, Fc-fused truncated mutant of KAAG1 spanning amino acids 1-35 (human).
T1 sequence: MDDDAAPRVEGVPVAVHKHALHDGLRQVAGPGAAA
Kind of assay: ELISA.
Take B1: the OD450 is 0.33.

A further assay addresses Fc-0447 1-60 (human) (UniProt Q9UBP8). As to the kind of experiment: ELISA. (ELISA stands for enzyme-linked immunosorbent assay.)
In turn, B2 yielded an OD450 of 2.29.
On the same count and under the same terms, next, B3: 0.48; B4: 0.57.
The same measure, in the same setting: the value for B5 was 0.27; that for B6 was 1.33; that for B7 was 1.52.

For the origin of these results see US20110223107A1.
